One assay concerns the target T1, murine GITR-Fc (Mus musculus, UniProt O35714 20-153).
T1 construct: extracellular domain; also called mouse GITR; musGITR
T1 sequence (looked up): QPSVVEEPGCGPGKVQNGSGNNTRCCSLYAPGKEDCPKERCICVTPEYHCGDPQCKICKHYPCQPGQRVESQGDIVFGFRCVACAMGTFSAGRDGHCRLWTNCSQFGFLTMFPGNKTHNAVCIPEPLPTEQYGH
The experiment in a line: ELISA, plate coated with mouse GITR-Fc 0.5 µg/ml, antibody titrated 10 to 0.02 µg/ml. As for the experimental part: ELISA was used to measure relative affinity of antibodies against GITR-Fc from different organisms. For binding assay, ELISA plate wells (medium binding from Greiner bio one) were coated with 50 μl of human/cynomolgus/murine GITR-Fc (0.5 μg/ml in 1× carbonate buffer), sealed and incubated overnight at 4° C. All further steps were performed in accordance with the standard ELISA protocol described in Example 6. […] Therefore, candidate BCD166-01-011 was excluded from further study due to the lack of apparent specificity for the monkey GITR. Candidates BCD166-01-01 and BCD166-01-014 were finalized for further development.
Background: In an ELISA, binding on a coated surface is turned into a signal by an enzyme label.

The target of a further assay is T2, macaca mulatta GITR (Macaca mulatta, UniProt F7DDV8 20-156).
T2 construct: also called rhesus macaque GITR; mcyGITR Macaca mulatta
T2 sequence: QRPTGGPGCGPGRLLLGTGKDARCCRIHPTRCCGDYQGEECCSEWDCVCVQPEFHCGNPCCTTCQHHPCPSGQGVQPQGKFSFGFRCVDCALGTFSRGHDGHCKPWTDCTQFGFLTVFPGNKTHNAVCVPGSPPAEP
The experiment in a line: BLI OctetRed 96, antigen on AR2G sensors, antibody in solution, 1:1 model. On the procedure:
(§1) Binding affinity constants for anti-GITR antibodies and rhesus macaque/cynomolgus monkey GITR were obtained using OctetRed 96 according to manufacturer's (ForteBio) protocol. Antigen 25 μg/ml was non-specifically immobilized onto the surface of amine-reactive sensors of the second generation (AR2G) (ForteBio, using standard protocol according to manufacturer's instructions for preparation and immobilization of AR2G sensors). […] The assay was conducted at 30° C. using PBS comprising 0.1% Tween-20 and 0.1% BSA as a working buffer.
(§2) The resulting sensograms, after subtracting a reference signal, were analyzed using Octet Data Analysis software (Version 8.0) in accordance with the standard procedure and using 1:1 interaction model.

The target of another assay is T3, macaca Cynomolgus GITR (Macaca cynomolgus).
T3 construct: also called cynomolgus monkey GITR; monkey GITR
The assay is described as above. On the procedure: as §1, §2

Assay [1] addresses T4, recombinant human GITR antigen (extracellular domain) (human, UniProt Q9Y5U5 26-162).
T4 construct: extracellular domain
T4 sequence (looked up): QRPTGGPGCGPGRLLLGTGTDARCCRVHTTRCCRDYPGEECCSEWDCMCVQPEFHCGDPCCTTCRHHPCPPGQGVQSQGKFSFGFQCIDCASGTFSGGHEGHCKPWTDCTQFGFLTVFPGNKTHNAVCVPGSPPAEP
The description is as above. As for the experimental part:
Binding affinity constants for anti-GITR antibody-human/rhesus macaque/cynomolgus monkey GITR interactions were determined using OctetRed 96 according to manufacturer (ForteBio) protocol. Antigen 25 μg/ml was non-specifically immobilized onto the surface of amine-reactive sensors of the second generation (AR2G) (ForteBio, using standard protocol according to manufacturer's instructions for preparation and immobilization of AR2G sensors). […] The assay was conducted at 30° C. using PBS comprising 0.1% Tween-20 and 0.1% BSA as a working buffer.
The resulting sensograms, after subtracting a reference signal, were analyzed using Octet Data Analysis software (Version 8.0) in accordance with the standard procedure and using 1:1 interaction model. All tested antibodies show high affinity and specificity for human GITR.

In the next assay the target is T5, human FcgRIIIa158F (human, UniProt P08637 17-208, biotinylated (site not stated)).
T5 construct: Biotinylated receptor on streptavidin sensors
Nature of the assay: bio-layer interferometry (OctetRed 96), biotinylated receptor on streptavidin sensors, antibody in solution, pH 7.4 buffer, 30 °C. On the procedure: (§3) The binding affinity constants for antibody BCD166-02-01-human FcRn, FcgRIIIa158V, FcgRIIIa158F, FcgRIIa131H, FcgRIIa131R, FcgRIIb and FcgRIa interactions were determined using OctetRed 96 (ForteBio). Biotinylated receptors were immobilized on the surface of streptavidin sensors (SA). We conducted and analyzed the association and dissociation between receptors and antibody in a working buffer (PBS containing 0.1% Tween-20 and 0.1% BSA: for FcRn receptor we used pH6 buffer, for the other receptors we used pH 7.4 buffer) at 30° C. The resulting sensograms were analyzed in accordance with 1:1 or 2:1 models, the affinity constants were calculated using Octet Data Analysis Software 8.0 User Guide Copyright 2011©.
On the technique in general: BLI is a label-free optical method that tracks binding on a fibre tip over time.

The next assay deals with T6, human FcgRIIa131H (human, UniProt P12318 36-218, biotinylated (site not stated)).
T6 construct: Biotinylated receptor on streptavidin sensors
T6 sequence (looked up): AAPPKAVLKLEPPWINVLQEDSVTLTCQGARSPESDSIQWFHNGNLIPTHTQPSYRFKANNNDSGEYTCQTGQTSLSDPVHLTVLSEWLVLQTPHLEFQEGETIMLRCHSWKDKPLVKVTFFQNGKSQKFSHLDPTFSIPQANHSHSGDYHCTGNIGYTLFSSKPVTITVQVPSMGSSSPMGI
Described as above. As for the experimental part: as §3

The target of a further assay is T7, human FcgRIIIa158V (human, UniProt P08637 17-208, biotinylated (site not stated)).
T7 construct: Biotinylated receptor on streptavidin sensors
The assay is described as above. On the procedure:
as §3

A further assay concerns the target T8, human FcgRIIa131R (human, UniProt P12318 36-218, biotinylated (site not stated)).
T8 construct: Biotinylated receptor on streptavidin sensors
T8 sequence (looked up): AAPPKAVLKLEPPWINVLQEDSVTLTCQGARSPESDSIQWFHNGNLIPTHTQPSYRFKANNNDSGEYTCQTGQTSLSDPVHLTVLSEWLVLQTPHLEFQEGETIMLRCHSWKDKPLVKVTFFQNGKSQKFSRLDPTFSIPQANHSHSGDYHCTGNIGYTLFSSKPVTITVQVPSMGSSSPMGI
The assay is described as above. On the procedure: as §3

Another assay has as its target T9, human FcgRIIb (human, UniProt P31994 43-217, biotinylated (site not stated)).
T9 construct: Biotinylated receptor on streptavidin sensors
T9 sequence (looked up): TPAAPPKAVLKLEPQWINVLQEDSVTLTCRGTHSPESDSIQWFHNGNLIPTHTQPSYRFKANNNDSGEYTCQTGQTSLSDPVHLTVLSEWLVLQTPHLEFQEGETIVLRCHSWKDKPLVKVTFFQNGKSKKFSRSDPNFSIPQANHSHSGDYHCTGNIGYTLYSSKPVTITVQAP
The description is as above. On the procedure:
as §3

The target of the next assay is T10, human FcgRIa (human, UniProt P12314 16-288, limits assumed, biotinylated (site not stated)).
T10 construct: Biotinylated receptor on streptavidin sensors
Described as above. On the procedure: as §3

The target of assay [2] is T11, GITR stably expressed on the surface of HEK-293 cells (UniProt Q9Y5U5 26-241).
T11 sequence (looked up): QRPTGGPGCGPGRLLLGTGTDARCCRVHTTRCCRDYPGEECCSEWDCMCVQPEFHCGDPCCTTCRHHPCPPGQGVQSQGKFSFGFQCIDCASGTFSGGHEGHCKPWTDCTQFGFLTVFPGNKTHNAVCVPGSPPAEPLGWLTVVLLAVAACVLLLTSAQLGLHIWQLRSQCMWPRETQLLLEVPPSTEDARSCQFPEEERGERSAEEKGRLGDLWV
Nature of the assay: cell-based or functional assay.

Another assay addresses T12, human FcRn (human, UniProt P55899 24-297; P61769 21-119, biotinylated (site not stated)).
T12 construct: Biotinylated receptor on streptavidin sensors
Nature of the assay: bio-layer interferometry (OctetRed 96), biotinylated receptor on streptavidin sensors, antibody in solution, pH 6 buffer, 30 °C. On the procedure: as §3

From patent US20220213209A1 (JOINT STOCK COMPANY BIOCAD, published 2022) come the findings set out here.

T12 sequence (P55899 24-297 limits assumed, chain 1 of 2): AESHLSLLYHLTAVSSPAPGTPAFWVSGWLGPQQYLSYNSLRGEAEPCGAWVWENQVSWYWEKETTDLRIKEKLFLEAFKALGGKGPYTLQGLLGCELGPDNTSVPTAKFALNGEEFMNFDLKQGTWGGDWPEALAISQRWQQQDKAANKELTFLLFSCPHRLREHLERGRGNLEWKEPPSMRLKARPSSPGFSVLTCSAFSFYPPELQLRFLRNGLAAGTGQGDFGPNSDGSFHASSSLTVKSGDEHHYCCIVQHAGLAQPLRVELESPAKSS
T12 sequence (P61769 21-119 limits assumed, chain 2 of 2): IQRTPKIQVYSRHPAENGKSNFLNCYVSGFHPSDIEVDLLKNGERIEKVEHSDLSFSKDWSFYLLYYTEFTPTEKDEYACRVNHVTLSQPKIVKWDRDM
T7 sequence (P08637 17-208 F176V limits assumed): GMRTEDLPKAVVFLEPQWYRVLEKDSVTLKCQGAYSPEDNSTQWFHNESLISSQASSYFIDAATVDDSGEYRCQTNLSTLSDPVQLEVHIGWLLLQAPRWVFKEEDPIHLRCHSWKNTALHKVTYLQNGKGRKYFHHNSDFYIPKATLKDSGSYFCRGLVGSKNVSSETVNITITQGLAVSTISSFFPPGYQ
T5 sequence (P08637 17-208 limits assumed): as the sequence (P08637 17-208 F176V limits assumed) above, with V160F counted along it
T10 sequence (P12314 16-288 limits assumed): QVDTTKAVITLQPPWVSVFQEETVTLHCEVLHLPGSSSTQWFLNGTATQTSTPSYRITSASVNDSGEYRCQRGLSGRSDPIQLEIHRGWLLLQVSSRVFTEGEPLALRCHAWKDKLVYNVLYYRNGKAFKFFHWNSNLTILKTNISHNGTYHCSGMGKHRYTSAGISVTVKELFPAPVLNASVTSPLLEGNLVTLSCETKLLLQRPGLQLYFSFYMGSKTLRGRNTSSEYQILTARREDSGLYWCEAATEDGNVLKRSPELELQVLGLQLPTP

B1: BCD166-01-014 (antibody, human IgG1, lambda, V domains shown)
VH: QVQLVQSGGGLVQPGGSLRLSCAASGFTFSYYWMYWVRQAPGKGLEWVSAISWNGGRTYYAESMKGRFTISRDNAQNTLYLQMNSLKSEDTAVYYCAKNRYYSDPNYGMNLWGKGTTVTVSS
VL: QSALTQPASVSGSPGQSITISCTGTSTDIGTYKYISWYQQHPGKAPKLIIYGVSHRPSGVSDRFSGSKSDNTASLTISGLQAEDEADYYCSSYTSSGTVVFGGGTKVTVLG
notes: Full-length IgG1, lambda light chain; from an immune llama-human CHARM Fab library; also called BCD166-01-14
For the molecule B1, the binding result with murine GITR-Fc is recorded as “no binding (tested: 10 µg/ml)”. Further, the dissociation constant Kd with macaca mulatta GITR was found to be 0.192 nM; with macaca Cynomolgus GITR it was 55.3 nM; in [1] it was 8.5 nM.

B2: BCD166-02-01 (antibody, human IgG1, kappa)
heavy: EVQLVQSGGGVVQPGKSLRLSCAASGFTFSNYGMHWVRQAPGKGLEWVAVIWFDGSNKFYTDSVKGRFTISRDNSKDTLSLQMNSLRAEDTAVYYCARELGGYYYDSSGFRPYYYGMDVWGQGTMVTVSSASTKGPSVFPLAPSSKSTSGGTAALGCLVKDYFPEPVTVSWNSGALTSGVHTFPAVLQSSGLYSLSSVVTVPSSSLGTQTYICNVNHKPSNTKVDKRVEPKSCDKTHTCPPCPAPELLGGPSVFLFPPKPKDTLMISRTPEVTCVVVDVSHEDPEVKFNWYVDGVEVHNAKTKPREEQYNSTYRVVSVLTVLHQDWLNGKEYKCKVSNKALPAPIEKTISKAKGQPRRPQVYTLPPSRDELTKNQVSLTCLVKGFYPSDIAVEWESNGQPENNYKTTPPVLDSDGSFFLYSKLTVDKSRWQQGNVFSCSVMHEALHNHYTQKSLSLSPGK
light: DVVMTQSPSSVSASVGDRVTITCRASQSIGSWLAWYQQKPGEAPKLLIYAASTLQRGVPSRFSGGGYGTEFTLTISSLQPEDFATYFCQQSHSHPLTFGGGTKVEIKRTVAAPSVFIFPPSDEQLKSGTASVVCLLNNFYPREAKVQWKVDNALQSGNSQESVTEQDSKDSTYSLSSTLTLSKADYEKHKVYACEVTHQGLSSPVTKSFNRGEC
notes: BCD166-01-01 with the E345R mutation (EU numbering) in the IgG1 Fc; also called BCD166-02-001
With B2, the Kd in the assay with human FcgRIIIa158F was determined as 1420 nM; with human FcgRIIa131H it was 72.2 nM; in the assay with human FcgRIIIa158V, 118 nM; in the assay with human FcgRIIa131R, 40.2 nM; with human FcgRIIb, 557 nM; in the assay with human FcgRIa it was 0.723 nM. This molecule returned a Kd with human FcRn of 27 nM. Further, the “EC50 in ADCC reporter assay (Jurkat-NFAT-Luc-CD16 effector cells, Hek-293-GITR target cells)” value in assay [2] is 40 fold, against BCD166-01-01. In assay [2], the “EC50 in cell agonist assay (HEK293-GITR-NFkB-Luc)” value was 20 fold, against BCD166-01-01. Moreover, the “level of activation in cell agonist assay (HEK293-GITR-NFkB-Luc)” value in assay [2] is 5 fold, against BCD166-01-01.

B3: BCD166-01-01 (antibody, human IgG1, kappa)
heavy: not shown
light: DVVMTQSPSSVSASVGDRVTITCRASQSIGSWLAWYQQKPGEAPKLLIYAASTLQRGVPSRFSGGGYGTEFTLTISSLQPEDFATYFCQQSHSHPLTFGGGTKVEIKRTVAAPSVFIFPPSDEQLKSGTASVVCLLNNFYPREAKVQWKVDNALQSGNSQESVTEQDSKDSTYSLSSTLTLSKADYEKHKVYACEVTHQGLSSPVTKSFNRGEC
notes: Full-length human IgG1, kappa; also called BCD166-01-001; BCD166-NHVKITSe13-5-H3-25
As for B3, the binding result with murine GITR-Fc is recorded as “no binding (tested: 10 µg/ml)”. The values for the Kd (with macaca mulatta GITR; with macaca Cynomolgus GITR; in assay [1]) were 0.0924 nM, 0.542 nM and 0.0638 nM, respectively.

Broadly, the Kd is the constant that tells how readily two partners part at equilibrium.
